According to paper PMC12395305 (ACS Central Science, 2025):

Biological target: T1, green fluorescent protein (Aequorea victoria, engineered EGFP-type …)
T1 construct: green fluorescent protein; pI 5.4; also called GFP; GFP-wt; source: produced by the authors; expression and purification in the Supplementary Methods
Assay: SPR; αGFP nanobody variants and GFP; constants in Table S1; format and conditions not shown
Conditions: both partners purified

fold reduction of affinity against the wild type: 25 fold
B1: αGFP-S54C (VHH)
VHH: QVQLVESGGALVQPGGSLRLSCAASGFPVNRYSMRWYRQAPGKEREWVAGMSCAGDRSSYEDSVKGRFTISRDDARNTVYLQMNSLKPEDTAVYYCNVNVGFEYWGQGTQVTVSS
notes: as the chain of m1 (nanobody chain of PDB 3OGO) with S54C; In the functional rows it carries linker 3c-rho on C54 (PEABS αGFP-S54-3c-rho); also called cysteine mutant; αGFP-S54C nanobody; source: bacterial expression vector, expressed and purified
